Test results reported in patent publication US20230038638A1, “COMPLEMENT FACTOR I-RELATED COMPOSITIONS AND METHODS” (published 2023).
Residue numbers refer to the chain shown, from its start.

How the values were obtained:
human C4b (human) [1] = biological target: T1, human C4b (human) (UniProt P0C0L5)
T1 sequence: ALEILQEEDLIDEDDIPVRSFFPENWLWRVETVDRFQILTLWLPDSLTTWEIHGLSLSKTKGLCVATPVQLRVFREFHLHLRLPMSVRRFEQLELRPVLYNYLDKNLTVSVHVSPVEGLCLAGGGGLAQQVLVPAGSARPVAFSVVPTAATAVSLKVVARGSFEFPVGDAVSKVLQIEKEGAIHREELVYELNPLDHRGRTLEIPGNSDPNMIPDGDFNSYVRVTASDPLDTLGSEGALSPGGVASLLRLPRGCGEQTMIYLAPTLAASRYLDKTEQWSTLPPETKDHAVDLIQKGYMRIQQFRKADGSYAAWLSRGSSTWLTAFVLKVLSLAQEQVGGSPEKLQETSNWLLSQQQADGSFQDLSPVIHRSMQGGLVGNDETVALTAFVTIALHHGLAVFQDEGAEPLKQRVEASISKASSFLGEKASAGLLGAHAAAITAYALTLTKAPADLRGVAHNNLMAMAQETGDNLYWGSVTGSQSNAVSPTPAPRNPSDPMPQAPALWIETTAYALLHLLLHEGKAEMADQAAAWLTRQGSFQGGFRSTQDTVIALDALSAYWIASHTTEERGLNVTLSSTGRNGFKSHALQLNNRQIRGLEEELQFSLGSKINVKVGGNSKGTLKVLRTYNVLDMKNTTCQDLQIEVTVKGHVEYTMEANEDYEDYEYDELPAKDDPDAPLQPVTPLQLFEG

[2] = biological target: soluble human C3b (human) (UniProt P01024)
human C4b (human) [3] = biological target: T2, human C4b (human) (UniProt P0C0L4)
T2 sequence: T1 sequence with T151A, G317D, L364P, S365C, I368L, H369D, S420N, A451V, R454L, A530S

[4] = biological target: soluble human C3b (human) (UniProt P01024); remark: listed apart in the source

Substance | C4b Screen Ref Fold (fold vs CFI-HSA wild type) (human C4b (human) [1]) | iC3b Screen Ref Fold (fold vs CFI-HSA wild type) [2] | C4c EC50 (nM) (human C4b (human) [3]) | iC3b EC50 [4] | C4c EC50 (human C4b (human) [3]) | iC3b Screen Ref Fold (fold of reference) [2]
CFI-HSA variant A502S (enzyme) | 0.36 | 0.96 | 640 nM | 26.7 nM |  | 
CFI-HSA variant A502S; K504Q; F537K (enzyme) | 0.93 | 1.07 | 810 nM | 31.2 nM |  | 
CFI-HSA variant E457G; E461Q; R557K (enzyme) |  |  | 52.6 nM | 10.8 nM |  | 
CFI-HSA variant E457G; N531G; E461Q; R462K; F464Y; E530Y (enzyme) |  |  | 7.8 nM | 3.5 nM |  | 
CFI-HSA variant E457G; N531G; E461Q; R462K; F464Y; GGSSGG (SEQ ID NO: 6); CR1 (ccp15-17) (from UniProt P17927) (enzyme) |  |  | 43.1 nM | 32.7 nM |  | 
CFI-HSA variant E457G; N531G; E530Y (enzyme) |  |  | 13 nM | 5 nM |  | 
CFI-HSA variant E457G; N531G; P535G; WT; GGSSGG (SEQ ID NO: 6); CR1(ccp15-17) (enzyme) |  |  |  | 14.3 nM | 44.4 nM | 
CFI-HSA variant E457G; WT; GGSSGG (SEQ ID NO: 6); CR1(ccp15-17) (enzyme) |  |  |  | 21.6 nM | 42.3 nM | 
CFI-HSA variant F464P (enzyme) |  |  |  | > 500 nM | > 1000 nM | 
CFI-HSA variant H370G (enzyme) |  |  | > 1000 nM | 80.8 nM |  | 
CFI-HSA variant K504D; Y408L; N531G (enzyme) |  |  |  | 20.9 nM | 242 nM | 
CFI-HSA variant K504E; Y408L; N531G (enzyme) |  |  |  | 19.4 nM | 120 nM | 
CFI-HSA variant L307S (enzyme) |  |  |  | 18.4 nM | 54.1 nM | 
CFI-HSA variant N531G; E457G; E461Q; R462K (enzyme) |  |  |  | 5.9 nM | 18.4 nM | 
CFI-HSA variant N531G; E457G; E461Q; R557A (enzyme) |  |  | 25 nM | 19.1 nM |  | 
CFI-HSA variant N531G; E457G; E461Q; R557K (enzyme) |  |  | 23.2 nM | 8.3 nM |  | 
CFI-HSA variant N531G; E457G; F464Y (enzyme) |  |  |  | 7 nM | 16.4 nM | 

Substance | C4b Screen Ref Fold (fold vs CFI-HSA wild type) (human C4b (human) [1]) | iC3b Screen Ref Fold (fold vs CFI-HSA wild type) [2] | C4c EC50 (nM) (human C4b (human) [3]) | iC3b EC50 [4] | C4c EC50 (human C4b (human) [3]) | iC3b Screen Ref Fold (fold of reference) [2]
CFI-HSA variant N531G; P535A; GGSSGG (SEQ ID NO: 6); CR1(ccp15-17) (enzyme) |  |  |  | 20.4 nM | 60.1 nM | 
CFI-HSA variant N531G; P535A; R557K (enzyme) |  |  | 52.2 nM | 17 nM |  | 
CFI-HSA variant N531G; WT; GGSSGG (SEQ ID NO: 6); CR1(ccp15-17) (enzyme) |  |  |  | 36.7 nM | 60 nM | 
CFI-HSA variant R462K; F464Y (enzyme) |  |  |  | 106 nM | > 1000 nM | 
CFI-HSA variant R557E (enzyme) |  |  | 151 nM | > 500 nM |  | 
CFI-HSA variant R557G (enzyme) |  |  | 143 nM | > 500 nM |  | 
CFI-HSA variant R557H (enzyme) |  |  | 98.8 nM | 198 nM |  | 
CFI-HSA variant R557L (enzyme) |  |  | 177 nM | 113 nM |  | 
CFI-HSA variant R557P (enzyme) |  |  | 96.3 nM | 288 nM |  | 
CFI-HSA variant R557Q (enzyme) |  |  | 120 nM | 286 nM |  | 
CFI-HSA variant R557S (enzyme) |  |  | 247 nM | 208 nM |  | 
CFI-HSA variant R557T (enzyme) |  |  | 324 nM | 217 nM |  | 
CFI-HSA variant R557V (enzyme) |  |  | 138 nM | 165 nM |  | 
CFI-HSA variant T377G; E457G; E461Q; N531G (enzyme) |  |  | 10.9 nM | 4.3 nM |  | 
CFI-HSA variant Y408L; N531G; E457G; R462K (enzyme) |  |  |  | 6.9 nM | 23 nM | 
CFI-HSA variant Y408L; N531G; R557A (enzyme) |  |  | 54.5 nM | 51.6 nM |  | 
CFI-HSA variant Y408L; N531G; ΔC-term (Δ558-PFISQYNV (SEQ ID NO: 14)-565) (enzyme) |  |  | 173 nM | 110 nM |  | 

Now from value to substance:

C4b Screen Ref Fold (fold vs CFI-HSA wild type) (human C4b (human) [1]) | iC3b Screen Ref Fold (fold vs CFI-HSA wild type) [2] | C4c EC50 (nM) (human C4b (human) [3]) | iC3b EC50 [4] | C4c EC50 (human C4b (human) [3]) | iC3b Screen Ref Fold (fold of reference) [2] | Substance
4.93 | 1.4 | 26.1 nM | 4.9 nM |  |  | CFI-HSA variant D425R; Y408L; N531G; E457G; E461Q; R462K; F464Y (enzyme)
 |  |  | 6.5 nM | 11.2 nM |  | CFI-HSA variant E457G; N531G (enzyme)
 |  | 16.4 nM | 4.4 nM |  |  | CFI-HSA variant E457G; N531G; D425R; E530Y (enzyme)
 |  |  | 28.1 nM | 29.1 nM |  | CFI-HSA variant E457G; N531G; WT; GGSSGG (SEQ ID NO: 6); CR1(ccp15-17) (enzyme)
 |  | > 1000 nM | 53.1 nM |  | 0.17 | CFI-HSA variant K504D (enzyme)
 |  |  | 15.7 nM | 104 nM |  | CFI-HSA variant K534H (enzyme)
 |  |  | 17.1 nM | 93.4 nM |  | CFI-HSA variant L307A (enzyme)
 |  | 51.1 nM | 97.1 nM |  |  | CFI-HSA variant N531G; E457G; E461Q; ΔC-term (Δ558-PFISQYNV (SEQ ID NO: 14)-565) (enzyme)
 |  |  | 7.7 nM | 17.3 nM |  | CFI-HSA variant N531G; E457G; R462K (enzyme)
 |  |  | 5.4 nM | 24.2 nM |  | CFI-HSA variant N531G; E461Q (enzyme)
 |  |  | 5.3 nM | 38.7 nM |  | CFI-HSA variant N531G; E461Q; R462K (enzyme)
 |  | 28.2 nM | 47.5 nM |  |  | CFI-HSA variant N531G; P535A; R557A (enzyme)
 |  | > 1000 nM | 64.3 nM |  |  | CFI-HSA variant R365A (enzyme)
 |  | 148 nM | > 500 nM |  |  | CFI-HSA variant R557D (enzyme)
 |  | 145 nM | 168 nM |  |  | CFI-HSA variant R557F (enzyme)
 |  | 117 nM | 128 nM |  |  | CFI-HSA variant R557I (enzyme)
 |  | 82 nM | 164 nM |  |  | CFI-HSA variant R557M (enzyme)
 |  | 154 nM | 360 nM |  |  | CFI-HSA variant R557N (enzyme)
 |  | 165 nM | 198 nM |  |  | CFI-HSA variant R557W (enzyme)
 |  | 145 nM | 116 nM |  |  | CFI-HSA variant R557Y (enzyme)
 |  | 20.7 nM | 5.9 nM |  |  | CFI-HSA variant T377G; E457G (enzyme)
 |  | 14.9 nM | 4.5 nM |  |  | CFI-HSA variant T377G; E457G; E461Q (enzyme)
 |  | 28.4 nM | 6.5 nM |  |  | CFI-HSA variant T377G; E461Q (enzyme)
 |  | 19.2 nM | 6.6 nM |  |  | CFI-HSA variant T377G; N531G (enzyme)
 |  | 27.4 nM | 24.2 nM |  |  | CFI-HSA variant Y408L; E457G; E461Q; R462K; N531G; R557A (enzyme)
 |  | 17.3 nM | 24.6 nM |  |  | CFI-HSA variant Y408L; E457G; E461Q; R462K; N531G; R557K (enzyme)
 |  | 111 nM | 131 nM |  |  | CFI-HSA variant Y408L; E457G; E461Q; R462K; N531G; ΔC-term (Δ558-PFISQYNV (SEQ ID NO: 14)-565) (enzyme)
 |  |  | 37.5 nM | 95.9 nM |  | CFI-HSA variant Y408L; WT; GGSSGG (SEQ ID NO: 6); CR1(ccp15-17) (enzyme)
